Paper PMC7108746

Molecular target: transmembrane Crumbs2 (CRB2TM) (mouse (endogenous in E15.5 spinal cord sections)) (UniProt Q80YA8)
Sequence of UniProt Q80YA8 (Q80YA8 36-1282): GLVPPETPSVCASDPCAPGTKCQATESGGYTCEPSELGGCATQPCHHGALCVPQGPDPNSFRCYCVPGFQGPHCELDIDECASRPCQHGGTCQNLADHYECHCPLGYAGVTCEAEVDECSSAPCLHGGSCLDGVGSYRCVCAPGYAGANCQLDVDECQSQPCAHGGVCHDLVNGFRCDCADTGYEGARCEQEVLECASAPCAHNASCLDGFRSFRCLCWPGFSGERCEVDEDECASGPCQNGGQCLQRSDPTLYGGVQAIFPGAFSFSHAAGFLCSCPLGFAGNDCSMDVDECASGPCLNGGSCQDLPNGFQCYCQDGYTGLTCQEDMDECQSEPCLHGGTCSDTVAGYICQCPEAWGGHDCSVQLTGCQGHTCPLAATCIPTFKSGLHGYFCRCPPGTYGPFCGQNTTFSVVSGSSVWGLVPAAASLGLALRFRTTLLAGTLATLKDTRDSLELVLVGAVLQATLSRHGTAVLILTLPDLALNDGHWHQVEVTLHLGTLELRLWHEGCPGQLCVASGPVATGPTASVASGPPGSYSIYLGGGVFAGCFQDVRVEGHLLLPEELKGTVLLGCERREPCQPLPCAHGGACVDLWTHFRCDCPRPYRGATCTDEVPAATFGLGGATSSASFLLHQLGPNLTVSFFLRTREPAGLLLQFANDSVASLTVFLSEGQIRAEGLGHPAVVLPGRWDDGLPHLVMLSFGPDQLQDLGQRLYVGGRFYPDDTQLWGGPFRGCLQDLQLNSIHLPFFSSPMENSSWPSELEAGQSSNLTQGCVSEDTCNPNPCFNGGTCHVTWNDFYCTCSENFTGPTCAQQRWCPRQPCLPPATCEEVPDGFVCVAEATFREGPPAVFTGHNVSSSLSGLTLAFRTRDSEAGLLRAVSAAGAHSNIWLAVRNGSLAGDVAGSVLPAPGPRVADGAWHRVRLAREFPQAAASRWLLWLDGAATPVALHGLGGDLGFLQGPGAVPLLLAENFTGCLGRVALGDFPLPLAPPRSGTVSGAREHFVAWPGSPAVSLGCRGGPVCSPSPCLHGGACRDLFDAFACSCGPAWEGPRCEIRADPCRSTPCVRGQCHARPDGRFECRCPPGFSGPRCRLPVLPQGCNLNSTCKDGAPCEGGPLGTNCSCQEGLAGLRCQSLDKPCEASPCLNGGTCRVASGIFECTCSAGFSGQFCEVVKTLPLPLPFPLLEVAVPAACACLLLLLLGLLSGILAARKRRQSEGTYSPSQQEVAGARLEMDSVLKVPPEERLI

Substance: secreted Crumbs2 (CRB2S), His-tagged (natural protein)
- apically localised ZO-1 in MDCK cells seeded at high density and cultured with high concentrations of CRB2S (77% of cells in control medium): 23%
